Here are results for one substance from paper PMC12963305.

The experiment addresses EmER1, EGF receptor of Echinococcus multilocularis, extracellular region in the MALAR-Y2H receptor vector (Echinococcus multilocularis).

On to “human EGF, extracellular domain in the MALAR-Y2H ligand vector (from UniProt P01133 23-1032)”, for which the germinal vesicle breakdown (GVBD) of Xenopus oocytes expressing EmER1 from cRNA, stimulated by 50 nM recombinant human EGF, counted after 15 h turned out to be 30%.
